Assay results: patent publication US20210380703A1

These binders were tested against Human Fc (human) (assay: ELISA, negative control).

Binder	optical density
367_E04 (antibody, V domains shown) VH: EVQLLESGGGLVQPGGSLRLSCAASGFTFSDYSMNWVRQAPGKGLEWVSSINYNGGYKGYADSVKGRFTISRDNSKNTLYLQMNSLRAEDTAVYYCARSANWHDTHLDYWGQGTLVTVSS VL: DIQMTQSPSSLSASVGDRVTITCRASQSILSYLNWYQQKPGKAPKLLIYAATSRASGVPSRFSGSGSGTDFTLTISSLQPEDFATYYCQQSYESPLTFGGGTKVEIK	0.284 OD
367_G06 (antibody, V domains shown) VH: EVQLLESGGGLVQPGGSLRLSCAASGFTFSSYGMNWVRQAPGKGLEWVSGINYNSGYKSYADSVKGRFTISRDNSKNTLYLQMNSLRAEDTAVYYCARSANWHDTHLDYWGQGTLVTVSS VL: DIQMTQSPSSLSASVGDRVTITCRASQSILTYVNWYQQKPGKAPKLLIYATTSLHSGVPSRFSGSGSGTDFTLTISSLQPEDFATYYCQQSYDTPLTFGGGTKVEIK	0.28 OD
367_F07 (antibody, V domains shown) VH: EVQLLESGGGLVQPGGSLRLSCAASGFTFDSYGMHWVRQAPGKGLEWVANINYNGGYTGYADSVKGRFTISRDNSKNTLYLQMNSLRAEDTAVYYCARSANWHDTALDYWGQGTLVTVSS VL: DIQMTQSPSSLSASVGDRVTITCRASQSIISYVNWYQQKPGKAPKLLIYAATSRASGVPSRFSGSGSGTDFTLTISSLQPEDFATYYCQQSYETPLTFGGGTKVEIK	0.242 OD
367_H06 (antibody, V domains shown) VH: EVQLLESGGGLVQPGGSLRLSCAASGFTFSSYGMNWVRQAPGKGLEWVSNINYNGGYTGYADSVKGRFTISRDNSKNTLYLQMNSLRAEDTAVYYCARSANWHDTHLDYWGQGTLVTVSS VL: DIQMTQSPSSLSASVGDRVTITCRASQSIITYLNWYQQKPGKAPKLLIYAATSRASGVPSRFSGSGSGTDFTLTISSLQPEDFATYYCQQSYDTPLTFGGGTKVEIK	0.313 OD
367_H11 (antibody, V domains shown) VH: EVQLLESGGGLVQPGGSLRLSCAASGFTFSSYGMNWVRQAPGKGLEWVAGINYNGGYKGYADSVKGRFTISRDNSKNTLYLQMNSLRAEDTAVYYCARSANWHDTALDYWGQGTLVTVSS VL: DIQMTQSPSSLSASVGDRVTITCRASQSIISYVNWYQQKPGKAPKLVIYAATSRASGVPSRFSGSGSGTDFTLTISSLQPEDFATYYCQQSYNSPLTFGGGTKVEIK	0.323 OD
367_E11 (antibody, V domains shown) VH: EVQLLESGGGLVQPGGSLRLSCAASGFTFDSYGMNWVRQAPGKGLEWVSSINYNSGYKGYADSVKGRFTISRDNSKNTLYLQMNSLRAEDTAVYYCARSANWHDTHLDYWGQGTLVTVSS VL: DIQMTQSPSSLSASVGDRVTITCRASQSIVSYVNWYQQKPGKAPKLVIYAATSRHSGVPSRFSGSGSGTDFTLTISSLQPEDFATYYCQQSYDTPLTFGGGTKVEIK	0.244 OD
368_A01 (antibody, V domains shown) VH: EVQLLESGGGLVQPGGSLRLSCAASGFTFSSYGMNWVRQAPGKGLEWVSNINYNGGYTSYADSVKGRFTISRDNSKNTLYLQMNSLRAEDTAVYYCARSANWHDTALDYWGQGTLVTVSS VL: DIQMTQSPSSLSASVGDRVTITCRASQSIISYLNWYQQKPGKAPKLLIYAATSRHSGVPSRFSGSGSGTDFTLTISSLQPEDFATYYCQQSYDNPLTFGGGTKVEIK	0.396 OD
367_F03 (antibody, V domains shown) VH: EVQLLESGGGLVQPGGSLRLSCAASGFTFSSYSMNWVRQAPGKGLEWVAGINYNSGYKSYADSVKGRFTISRDNSKNTLYLQMNSLRAEDTAVYYCARSANWHDTALDYWGQGTLVTVSS VL: DIQMTQSPSSLSASVGDRVTITCRASQSILSYVNWYQQKPGKAPKLVIYAATSLASGVPSRFSGSGSGTDFTLTISSLQPEDFATYYCQQSDDTPLTFGGGTKVEIK	0.301 OD
367_E09 (antibody, V domains shown) VH: EVQLLESGGGLVQPGGSLRLSCAASGFTFSDYGMNWVRQAPGKGLEWVASINYNSGYKGYADSVKGRFTISRDNSKNTLYLQMNSLRAEDTAVYYCARSANWHDTALDYWGQGTLVTVSS VL: DIQMTQSPSSLSASVGDRVTITCRASQSILSYLNWYQQKPGKAPKLVIYATTSRASGVPSRFSGSGSGTDFTLTISSLQPEDFATYYCQQSYETPLTFGGGTKVEIK	0.249 OD
367_G05 (antibody, V domains shown) VH: EVQLLESGGGLVQPGGSLRLSCAASGFTFSDYGMNWVRQAPGKGLEWVANINYNGGYTSYADSVKGRFTISRDNSKNTLYLQMNSLRAEDTAVYYCARSANWHDTALDYWGQGTLVTVSS VL: DIQMTQSPSSLSASVGDRVTITCRASQSIVSYLNWYQQKPGKAPKLVIYAATSLASGVPSRFSGSGSGTDFTLTISSLQPEDFATYYCQQSYDTPLTFGGGTKVEIK	0.283 OD
367_G10 (antibody, V domains shown) VH: EVQLLESGGGLVQPGGSLRLSCAASGFTFDDYGMNWVRQAPGKGLEWVSGINYNGGYTSYADSVKGRFTISRDNSKNTLYLQMNSLRAEDTAVYYCARSANWHDTALDYWGQGTLVTVSS VL: DIQMTQSPSSLSASVGDRVTITCRASQSIISYVNWYQQKPGKAPKLLIYAATSRASGVPSRFSGSGSGTDFTLTISSLQPEDFATYYCQQSYDSPLTFGGGTKVEIK	0.286 OD

The next lines start with the values.

optical density	Binder
0.285 OD	368_A05 (antibody, V domains shown) VH: EVQLLESGGGLVQPGGSLRLSCAASGFTFSSYSMNWVRQAPGKGLEWVAGINYNSGYTGYADSVKGRFTISRDNSKNTLYLQMNSLRAEDTAVYYCARSANWHDTALDYWGQGTLVTVSS VL: DIQMTQSPSSLSASVGDRVTITCRASQSIVSYLNWYQQKPGKAPKLVIYAATSRASGVPSRFSGSGSGTDFTLTISSLQPEDFATYYCQQSYDSPLTFGGGTKVEIK
0.282 OD	368_D05 (antibody, V domains shown) VH: EVQLLESGGGLVQPGGSLRLSCAASGFTFSSYSMNWVRQAPGKGLEWVSGINYNGGYTSYADSVKGRFTISRDNSKNTLYLQMNSLRAEDTAVYYCARSANWHDTALDYWGQGTLVTVSS VL: DIQMTQSPSSLSASVGDRVTITCRASQSILTYLNWYQQKPGKAPKLVIYAATSRASGVPSRFSGSGSGTDFTLTISSLQPEDFATYYCQQSDDSPLTFGGGTKVEIK
0.338 OD	368_D04 (antibody, V domains shown) VH: EVQLLESGGGLVQPGGSLRLSCAASGFTFSSYGMNWVRQAPGKGLEWVSGINYNGGYKSYADSVKGRFTISRDNSKNTLYLQMNSLRAEDTAVYYCARSANWHDTALDYWGQGTLVTVSS VL: DIQMTQSPSSLSASVGDRVTITCRASQSISTYVNWYQQKPGKAPKLVIYAVTSRHSGVPSRFSGSGSGTDFTLTISSLQPEDFATYYCQQSYDSPLTFGGGTKVEIK
0.246 OD	368_C05 (antibody, V domains shown) VH: EVQLLESGGGLVQPGGSLRLSCAASGFTFDSYGMNWVRQAPGKGLEWVSGINYNSGYTSYADSVKGRFTISRDNSKNTLYLQMNSLRAEDTAVYYCARSANWHDTALDYWGQGTLVTVSS VL: DIQMTQSPSSLSASVGDRVTITCRASQSILSYLNWYQQKPGKAPKLVIYAATSRASGVPSRFSGSGSGTDFTLTISSLQPEDFATYYCQQSDSNPLTFGGGTKVEIK
0.297 OD	368_D11 (antibody, V domains shown) VH: EVQLLESGGGLVQPGGSLRLSCAASGFTFDDYGMNWVRQAPGKGLEWVSNINYNGGYKSYADSVKGRFTISRDNSKNTLYLQMNSLRAEDTAVYYCARSANWHDTALDYWGQGTLVTVSS VL: DIQMTQSPSSLSASVGDRVTITCRASQSILTYLNWYQQKPGKAPKLVIYAATSRASGVPSRFSGSGSGTDFTLTISSLQPEDFATYYCQQSYDLPLTFGGGTKVEIK
0.32 OD	368_E04 (antibody, V domains shown) VH: EVQLLESGGGLVQPGGSLRLSCAASGFTFSSYSMNWVRQAPGKGLEWVANINYNSGYTGYADSVKGRFTISRDNSKNTLYLQMNSLRAEDTAVYYCARSANWHDTALDYWGQGTLVTVSS VL: DIQMTQSPSSLSASVGDRVTITCRASQSILSYVNWYQQKPGKAPKLLIYAATSRHSGVPSRFSGSGSGTDFTLTISSLQPEDFATYYCQQSYDNPLTFGGGTKVEIK
0.392 OD	368_E01 (antibody, V domains shown) VH: EVQLLESGGGLVQPGGSLRLSCAASGFTFSSYSMNWVRQAPGKGLEWVASINYNSGYTGYADSVKGRFTISRDNSKNTLYLQMNSLRAEDTAVYYCARSANWHDTHLDYWGQGTLVTVSS VL: DIQMTQSPSSLSASVGDRVTITCRASQSILSYLNWYQQKPGKAPKLLIYAVTSRHSGVPSRFSGSGSGTDFTLTISSLQPEDFATYYCQQSYSLPLTFGGGTKVEIK
0.277 OD	368_A09 (antibody, V domains shown) VH: EVQLLESGGGLVQPGGSLRLSCAASGFTFDSYSMNWVRQAPGKGLEWVSGINYNGGYTSYADSVKGRFTISRDNSKNTLYLQMNSLRAEDTAVYYCARSANWHDTHLDYWGQGTLVTVSS VL: DIQMTQSPSSLSASVGDRVTITCRASQSILSYVNWYQQKPGKAPKLLIYAVTSRASGVPSRFSGSGSGTDFTLTISSLQPEDFATYYCQQSYDSPLTFGGGTKVEIK
0.261 OD	368_A07 (antibody, V domains shown) VH: EVQLLESGGGLVQPGGSLRLSCAASGFTFSSYSMNWVRQAPGKGLEWVAGINYNSGYTSYADSVKGRFTISRDNSKNTLYLQMNSLRAEDTAVYYCARSANWHDTHLDYWGQGTLVTVSS VL: DIQMTQSPSSLSASVGDRVTITCRASQSILTYLNWYQQKPGKAPKLVIYATTSRASGVPSRFSGSGSGTDFTLTISSLQPEDFATYYCQQSNELPLTFGGGTKVEIK
0.319 OD	368_D01 (antibody, V domains shown) VH: EVQLLESGGGLVQPGGSLRLSCAASGFTFSSYGMHWVRQAPGKGLEWVANINYNGGYTSYADSVKGRFTISRDNSKNTLYLQMNSLRAEDTAVYYCARSANWHDTALDYWGQGTLVTVSS VL: DIQMTQSPSSLSASVGDRVTITCRASQSILSYLNWYQQKPGKAPKLVIYAATSRASGVPSRFSGSGSGTDFTLTISSLQPEDFATYYCQQSDSTPLTFGGGTKVEIK
0.365 OD	368_B01 (antibody, V domains shown) VH: EVQLLESGGGLVQPGGSLRLSCAASGFTFSSYGMNWVRQAPGKGLEWVSGINYNSGYKSYADSVKGRFTISRDNSKNTLYLQMNSLRAEDTAVYYCARSANWHDTALDYWGQGTLVTVSS VL: DIQMTQSPSSLSASVGDRVTITCRASQSISSYLNWYQQKPGKAPKLLIYAATSRASGVPSRFSGSGSGTDFTLTISSLQPEDFATYYCQQSYETPLTFGGGTKVEIK
